This note sets out measurements from US20170081400A1 (CEPHALON, published 2017).

Test [1] has as its target T1, human TL1A extracellular domain with N-terminal HIS and FLAG tag (human, UniProt O95150 72-251).
T1 construct: whole entry named. ~70 kDa fraction purified by gel filtration
T1 sequence: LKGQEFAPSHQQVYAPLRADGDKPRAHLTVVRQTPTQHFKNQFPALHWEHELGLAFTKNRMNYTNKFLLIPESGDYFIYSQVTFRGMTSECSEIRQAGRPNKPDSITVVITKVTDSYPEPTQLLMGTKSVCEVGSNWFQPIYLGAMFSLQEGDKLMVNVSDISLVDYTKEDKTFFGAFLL
The test can be described thus: SPR run 2; supernatant on Protein A; TL1A 10 ug/mL; timepoint 44. From the text: (§1) 1.5. Antibody expression and antigen binding as determined by SPR. Using a CM5 sensor chip (GE Healthcare) Protein A (Pierce) was coupled to the chip surface using an amine coupling kit (GE Healthcare). Protein A was coupled on flow cell 1 and 2 (or alternatively 3 and 4) using a BIACORE® T200. […] The amount of supernatant or purified protein (as well as the concentration) injected during the capture stage varied between runs and is specified in the header of the Tables 3-11. At the end of injection of the supernatant or purified antibody the change in response units was measured. This value was reported as Capture Level in Tables 3-11. […] The response units were measured prior to the end of the dissociation phase. […] The sensorgrams were double referenced (flow cell 2 is subtracted from flow cell 1 and a buffer blank). As there were a large number of antibody variants to screen, these were screened across different runs (Tables 3-11). […] A summary of the conditions used in each run is below:
(§2) 2.1. […] In some experiment the antibodies were purified using Protein A chromatography (See 1.4) and purified antibodies were used in BIACORE® (GE Healthcare) experiments.

The target of test [2] is T1, human TL1A extracellular domain with …. Nature of the test: SPR run 2; supernatant on Protein A; TL1A 10 ug/mL; timepoint 220.
Source text: as §1, §2

The target of test [3] is T2, human TL1A extracellular domain with N-terminal HIS and FLAG tag (human, UniProt O95150 72-251).
T2 construct: the whole entry is named; also called TNFSF15
T2 sequence: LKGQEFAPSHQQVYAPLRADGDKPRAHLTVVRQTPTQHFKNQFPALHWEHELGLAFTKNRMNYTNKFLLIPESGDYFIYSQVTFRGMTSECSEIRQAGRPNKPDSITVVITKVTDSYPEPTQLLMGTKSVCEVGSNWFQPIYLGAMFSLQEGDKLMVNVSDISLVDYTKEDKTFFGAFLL
The test can be described thus: SPR Run 7, antibody on Protein A, TL1A 5 ug/mL, timepoint 220. A digest of the protocol:
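Surface plasmon resonance on a Biacore T200 was used, with variants spread over several runs. Antibodies were captured via immobilized Protein A, and their capture level was recorded. Sensorgrams were double-referenced, and the antigen response was read near the end of dissociation.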

Test [4] has as its target T2, human TL1A extracellular domain with …. The test can be described thus: SPR Run 7, antibody on Protein A, TL1A 5 ug/mL, timepoint 44. An outline of the steps: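 The capture level was the response change at the end of loading, which varied by run. Antigen response was read before dissociation ended, double-referenced against a reference flow cell and a buffer blank.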

B1: 320-192 (antibody, human IgG1, name in Kabat numbering, V domains shown)
VH: QVQLVQSGAEVKKPGASVKVSCKASGYTFTSYDINWVRQAPGQGLEWMGWLNPNSGNTGYAQKFQGRVTMTADRSTSTAYMELSSLRSEDTAVYYCAREVPETAAFEYWGQGTLVTVSS
VL: QSVLTQPPSVSGAPGQRVTISCASSSSDIGAGLGVHWYQQLPGTAPKLLIEGYYNRPSGVPDRFSGSKSGTSASLTITGLLPEDEGDYYCQSYDGTLSALFGGGTKLTVLG
notes: human IgG1, lambda
Take B1: the “TL1A Binding Level (Early)” value in test [1] was 238 RU. The “TL1A Binding Level (Late)” value in test [2] was 218 RU.

B2: 320-579 (antibody, human IgG1, name in Kabat numbering, V domains shown)
VH: QVQLVQSGAEVKKPGASVKVSCKASGYTFTSYDINWVRQAPGQGLEWMGWLLPNSGNTGYAQKFQGRVTMTADRSTSTAYMELSSLRSEDTAVYYCAREVPETAAFEYWGQGTLVTVSS
VL: QSVLTQPPSVSGAPGQRVTISCTSSSSDIGAGLGVHWYQQLPGTAPKLLIEGYYNRPSGVPDRFSGSKSGTSASLTITGLLPEDEGDYYCQSYDGTLSALFGGGTKLTVLG
notes: full-length human IgG1, lambda
Consider B2, for which the “TL1A Binding Level (Late)” value in test [3] is 41 RU. For the same molecule, in test [4], the “TL1A Binding Level (Early)” value worked out at 46 RU.

B3: 320-577 (antibody, human IgG1, name in Kabat numbering, V domains shown)
VH: QVQLVQSGAEVKKPGASVKVSCKASGYTFTSYDINWVRQAPGQGLEWMGWANPNSGNTGYAQKFQGRVTMTADRSTSTAYMELSSLRSEDTAVYYCAREVPETAAFEYWGQGTLVTVSS
VL: QSVLTQPPSVSGAPGQRVTISCTSSSSDIGAGLGVHWYQQLPGTAPKLLIEGYYNRPSGVPDRFSGSKSGTSASLTITGLLPEDEGDYYCQSYDGTLSALFGGGTKLTVLG
notes: as for B2
Turning to B3, the “TL1A Binding Level (Late)” value in test [3] was found to be 90 RU. Also, the “TL1A Binding Level (Early)” value in test [4] was 98 RU.

B4: 320-200 (antibody, human IgG1, name in Kabat numbering, V domains shown)
VH: QVQLVQSGAEVKKPGASVKVSCKASGYTFTSYDINWVRQAPGQGLEWMGWLNPNSGNTGYAQKFQGRVTMTADRSTSTAYMELSSLRSEDTAVYYCAREVPETAAFEYWGQGTLVTVSS
VL: QSVLTQPPSVSGAPGQRVTISCYSSSSDIGAGLGVHWYQQLPGTAPKLLIEGYYNRPSGVPDRFSGSKSGTSASLTITGLLPEDEGDYYCQSYDGTLSALFGGGTKLTVLG
notes: human IgG1, lambda
B4: the “TL1A Binding Level (Early)” value in test [1] amounted to 251 RU. The “TL1A Binding Level (Late)” value in test [2] came out at 231 RU.

B5: 320-206 (antibody, human IgG1, name in Kabat numbering, V domains shown)
VH: QVQLVQSGAEVKKPGASVKVSCKASGYTFTSYDINWVRQAPGQGLEWMGWLNPNSGNTGYAQKFQGRVTMTADRSTSTAYMELSSLRSEDTAVYYCAREVPETAAFEYWGQGTLVTVSS
VL: QSVLTQPPSVSGAPGQRVTISCTLSSSDIGAGLGVHWYQQLPGTAPKLLIEGYYNRPSGVPDRFSGSKSGTSASLTITGLLPEDEGDYYCQSYDGTLSALFGGGTKLTVLG
notes: human IgG1, lambda
B5: the “TL1A Binding Level (Early)” value in test [1] came to 257 RU. Moreover, the “TL1A Binding Level (Late)” value in test [2] was 235 RU.

B6: 320-578 (antibody, human IgG1, name in Kabat numbering, V domains shown)
VH: QVQLVQSGAEVKKPGASVKVSCKASGYTFTSYDINWVRQAPGQGLEWMGWYNPNSGNTGYAQKFQGRVTMTADRSTSTAYMELSSLRSEDTAVYYCAREVPETAAFEYWGQGTLVTVSS
VL: QSVLTQPPSVSGAPGQRVTISCTSSSSDIGAGLGVHWYQQLPGTAPKLLIEGYYNRPSGVPDRFSGSKSGTSASLTITGLLPEDEGDYYCQSYDGTLSALFGGGTKLTVLG
notes: as for B2
As for B6, the “TL1A Binding Level (Late)” value in test [3] amounted to 77 RU. For the same molecule, in test [4], the “TL1A Binding Level (Early)” value was determined as 83 RU.

B7: 320-582 (antibody, human IgG1, name in Kabat numbering, V domains shown)
VH: QVQLVQSGAEVKKPGASVKVSCKASGYTFTSYDINWVRQAPGQGLEWMGWLNPNSGNTGWAQKFQGRVTMTADRSTSTAYMELSSLRSEDTAVYYCAREVPETAAFEYWGQGTLVTVSS
VL: QSVLTQPPSVSGAPGQRVTISCTSSSSDIGAGLGVHWYQQLPGTAPKLLIEGYYNRPSGVPDRFSGSKSGTSASLTITGLLPEDEGDYYCQSYDGTLSALFGGGTKLTVLG
notes: as for B2
Take B7: the “TL1A Binding Level (Late)” value in test [3] worked out at 52 RU. For the same molecule, the “TL1A Binding Level (Early)” value in test [4] was determined as 67 RU.

B8: 320-581 (antibody, human IgG1, name in Kabat numbering, V domains shown)
VH: QVQLVQSGAEVKKPGASVKVSCKASGYTFTSYDINWVRQAPGQGLEWMGWLNPNSGNTGLAQKFQGRVTMTADRSTSTAYMELSSLRSEDTAVYYCAREVPETAAFEYWGQGTLVTVSS
VL: QSVLTQPPSVSGAPGQRVTISCTSSSSDIGAGLGVHWYQQLPGTAPKLLIEGYYNRPSGVPDRFSGSKSGTSASLTITGLLPEDEGDYYCQSYDGTLSALFGGGTKLTVLG
notes: as for B2
For B8, in test [3], the “TL1A Binding Level (Late)” value stood at 65 RU. The “TL1A Binding Level (Early)” value in test [4] turned out to be 70 RU.

B9: 320-195 (antibody, human IgG1, name in Kabat numbering, V domains shown)
VH: QVQLVQSGAEVKKPGASVKVSCKASGYTFTSYDINWVRQAPGQGLEWMGWLNPNSGNTGYAQKFQGRVTMTADRSTSTAYMELSSLRSEDTAVYYCAREVPETAAFEYWGQGTLVTVSS
VL: QSVLTQPPSVSGAPGQRVTISCDSSSSDIGAGLGVHWYQQLPGTAPKLLIEGYYNRPSGVPDRFSGSKSGTSASLTITGLLPEDEGDYYCQSYDGTLSALFGGGTKLTVLG
notes: human IgG1, lambda
As for B9, in test [1], the “TL1A Binding Level (Early)” value is 249 RU. Further, the “TL1A Binding Level (Late)” value in test [2] worked out at 227 RU.

B10: 320-204 (antibody, human IgG1, name in Kabat numbering, V domains shown)
VH: QVQLVQSGAEVKKPGASVKVSCKASGYTFTSYDINWVRQAPGQGLEWMGWLNPNSGNTGYAQKFQGRVTMTADRSTSTAYMELSSLRSEDTAVYYCAREVPETAAFEYWGQGTLVTVSS
VL: QSVLTQPPSVSGAPGQRVTISCTHSSSDIGAGLGVHWYQQLPGTAPKLLIEGYYNRPSGVPDRFSGSKSGTSASLTITGLLPEDEGDYYCQSYDGTLSALFGGGTKLTVLG
notes: human IgG1, lambda
Consider B10, for which the “TL1A Binding Level (Early)” value in test [1] was found to be 193 RU. Also, the “TL1A Binding Level (Late)” value in test [2] was 155 RU.

B11: 320-208 (antibody, human IgG1, name in Kabat numbering, V domains shown)
VH: QVQLVQSGAEVKKPGASVKVSCKASGYTFTSYDINWVRQAPGQGLEWMGWLNPNSGNTGYAQKFQGRVTMTADRSTSTAYMELSSLRSEDTAVYYCAREVPETAAFEYWGQGTLVTVSS
VL: QSVLTQPPSVSGAPGQRVTISCTYSSSDIGAGLGVHWYQQLPGTAPKLLIEGYYNRPSGVPDRFSGSKSGTSASLTITGLLPEDEGDYYCQSYDGTLSALFGGGTKLTVLG
notes: human IgG1, lambda
With B11, in test [1], the “TL1A Binding Level (Early)” value turned out to be 222 RU. In addition, the “TL1A Binding Level (Late)” value in test [2] came to 199 RU.

B12: 320-580 (antibody, human IgG1, name in Kabat numbering, V domains shown)
VH: QVQLVQSGAEVKKPGASVKVSCKASGYTFTSYDINWVRQAPGQGLEWMGWLNPNSYNTGYAQKFQGRVTMTADRSTSTAYMELSSLRSEDTAVYYCAREVPETAAFEYWGQGTLVTVSS
VL: QSVLTQPPSVSGAPGQRVTISCTSSSSDIGAGLGVHWYQQLPGTAPKLLIEGYYNRPSGVPDRFSGSKSGTSASLTITGLLPEDEGDYYCQSYDGTLSALFGGGTKLTVLG
notes: as for B2
As to B12, the “TL1A Binding Level (Late)” value in test [3] was found to be 47 RU. The “TL1A Binding Level (Early)” value in test [4] came out at 51 RU.

B13: 320-210 (antibody, human IgG1, name in Kabat numbering, V domains shown)
VH: QVQLVQSGAEVKKPGASVKVSCKASGYTFTSYDINWVRQAPGQGLEWMGWLNPNSGNTGYAQKFQGRVTMTADRSTSTAYMELSSLRSEDTAVYYCAREVPETAAFEYWGQGTLVTVSS
VL: QSVLTQPPSVSGAPGQRVTISCTSQSSDIGAGLGVHWYQQLPGTAPKLLIEGYYNRPSGVPDRFSGSKSGTSASLTITGLLPEDEGDYYCQSYDGTLSALFGGGTKLTVLG
notes: human IgG1, lambda
With B13, the “TL1A Binding Level (Early)” value in test [1] is 225 RU. The “TL1A Binding Level (Late)” value in test [2] was determined as 202 RU.

B14: 320-196 (antibody, human IgG1, name in Kabat numbering, V domains shown)
VH: QVQLVQSGAEVKKPGASVKVSCKASGYTFTSYDINWVRQAPGQGLEWMGWLNPNSGNTGYAQKFQGRVTMTADRSTSTAYMELSSLRSEDTAVYYCAREVPETAAFEYWGQGTLVTVSS
VL: QSVLTQPPSVSGAPGQRVTISCHSSSSDIGAGLGVHWYQQLPGTAPKLLIEGYYNRPSGVPDRFSGSKSGTSASLTITGLLPEDEGDYYCQSYDGTLSALFGGGTKLTVLG
notes: human IgG1, lambda
As for B14, the “TL1A Binding Level (Early)” value in test [1] worked out at 250 RU. The “TL1A Binding Level (Late)” value in test [2] is 228 RU.
